Measured values: the supplement of paper PMC7877785
± gives the uncertainty stated by the source.

Assay: self-splicing fitness, log relative to wild type (ln ratio); higher = more splicing; Tetrahymena group I intron in knt gene, E. coli kanamycin selection, DiMSum; sequences stand for … in CUCUCU…GGAGGGAAAAGUUAUCAGGCAUGCACCUGGUAGCUAGUCUUUAAACCAAUAGAUUGCAUCGGUUUAAAAGGCAAGACCGUCAAAUUGCGGGAAAGGGGUCAACAGCCGUUCAGUACCAAGUCUCAGGGGAAACUUUGAGAUGGCCUUGCAAAGGGUAUGGUAAUAAGCUGACGGACAUGGUCCUAACCACGCAGCCAAGUCCUAAGUCAACAGAUCUUCUGUUGAUAUGGAUGCAGUUCACAGACUAAAUGUCGGUCGGGGAAGAUGUAUUCUUCUCAUAAGAUAUAGUCGGACCUCUCCUUAAUGGGAGCUAGCGGAUGAAGUGAUGCAACACUGGAGCCGCUGGGAACUAAUUUGUAUGCGAAAGUAUAUUGAUUAGUUUUGGAGUACUCGUGGUCG
How it was run: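 The eight P1ex-region nucleotides of an intron in the knt kanamycin-resistance gene on pET-22b(+) were all randomised and the library put into E. coli BL21(DE3). Six replicate transformations were grown overnight at 37°C or 30°C on LB agar with or without 25 μg/mL kanamycin, together with 100 μg/mL carbenicillin, 50 μM IPTG and 0.2% rhamnose. Colonies were pooled and amplicon-sequenced on an Illumina HiSeq 2500. Fitness from DiMSum is the error-weighted combination of wild-type-normalised replicate fold changes, kanamycin over none.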

## AUGUAGCAAUAUUACGGGUG
30 °C
  self-splicing fitness (ln): -3.85 ± 0.29
37 °C
  self-splicing fitness (ln): -2.54 ± 0.18

## AUGUAGCAAUAUUACGUAAG
30 °C
  self-splicing fitness (ln): -2.99 ± 0.2
37 °C
  self-splicing fitness (ln): -2.93 ± 0.2

## AUGUAGCAAUAUUACGUACC
30 °C
  self-splicing fitness (ln): -0.724 ± 0.19
37 °C
  self-splicing fitness (ln): -1.14 ± 0.18

## AUGUAGCAAUAUUACGUAGG
30 °C
  self-splicing fitness (ln): -3.93 ± 0.19
37 °C
  self-splicing fitness (ln): -1.43 ± 0.096

## AUGUAGCAAUAUUACGUCUC
37 °C
  self-splicing fitness (ln): -2.4 ± 0.3

## AUGUAGCAAUAUUACGUGAG
30 °C
  self-splicing fitness (ln): -0.927 ± 0.15
37 °C
  self-splicing fitness (ln): -0.0873 ± 0.21

## AUGUAGCAAUAUUACGUUAC
30 °C
  self-splicing fitness (ln): -4.22 ± 0.39
37 °C
  self-splicing fitness (ln): -0.607 ± 0.2

## AUGUAGCAAUAUUACGUUGG
30 °C
  self-splicing fitness (ln): -2.21 ± 0.12
37 °C
  self-splicing fitness (ln): -1.8 ± 0.17

## AUUAAGCAAUAUUACGACAA
30 °C
  self-splicing fitness (ln): -0.618 ± 0.096
37 °C
  self-splicing fitness (ln): -0.264 ± 0.11

## AUUAAGCAAUAUUACGACAG
30 °C
  self-splicing fitness (ln): -1.91 ± 0.16
37 °C
  self-splicing fitness (ln): -1.47 ± 0.19

## AUUAAGCAAUAUUACGACUG
30 °C
  self-splicing fitness (ln): -2.34 ± 0.2
37 °C
  self-splicing fitness (ln): -1.64 ± 0.24

## AUUAAGCAAUAUUACGAGGU
30 °C
  self-splicing fitness (ln): -2.83 ± 0.24
37 °C
  self-splicing fitness (ln): -2.1 ± 0.31

## AUUAAGCAAUAUUACGAUGG
30 °C
  self-splicing fitness (ln): -3.96 ± 0.37
37 °C
  self-splicing fitness (ln): -1.94 ± 0.26

## AUUAAGCAAUAUUACGCAAA
30 °C
  self-splicing fitness (ln): -1.78 ± 0.23
37 °C
  self-splicing fitness (ln): -1.32 ± 0.18

## AUUAAGCAAUAUUACGCCAA
30 °C
  self-splicing fitness (ln): -0.955 ± 0.21
37 °C
  self-splicing fitness (ln): -1.59 ± 0.25

## AUUAAGCAAUAUUACGCCGG
30 °C
  self-splicing fitness (ln): -0.824 ± 0.19
37 °C
  self-splicing fitness (ln): -0.226 ± 0.25

## AUUAAGCAAUAUUACGCCUA
30 °C
  self-splicing fitness (ln): -0.154 ± 0.086
37 °C
  self-splicing fitness (ln): 0.195 ± 0.11

## AUUAAGCAAUAUUACGCGCC
30 °C
  self-splicing fitness (ln): -1.18 ± 0.15
37 °C
  self-splicing fitness (ln): -0.862 ± 0.2

## AUUAAGCAAUAUUACGCGCU
30 °C
  self-splicing fitness (ln): -0.542 ± 0.11
37 °C
  self-splicing fitness (ln): -0.561 ± 0.15

## AUUAAGCAAUAUUACGCUAA
30 °C
  self-splicing fitness (ln): -1.89 ± 0.17
37 °C
  self-splicing fitness (ln): -0.434 ± 0.13

## AUUAAGCAAUAUUACGCUCC
30 °C
  self-splicing fitness (ln): -1.04 ± 0.23
37 °C
  self-splicing fitness (ln): -0.859 ± 0.29

## AUUAAGCAAUAUUACGGAUA
30 °C
  self-splicing fitness (ln): -2.12 ± 0.28
37 °C
  self-splicing fitness (ln): -1.99 ± 0.2

## AUUAAGCAAUAUUACGGCAC
30 °C
  self-splicing fitness (ln): -1 ± 0.086
37 °C
  self-splicing fitness (ln): -0.297 ± 0.11

## AUUAAGCAAUAUUACGGCCA
30 °C
  self-splicing fitness (ln): -0.171 ± 0.12
37 °C
  self-splicing fitness (ln): -0.598 ± 0.12

## AUUAAGCAAUAUUACGGCCC
30 °C
  self-splicing fitness (ln): -0.404 ± 0.27
37 °C
  self-splicing fitness (ln): -0.419 ± 0.27

## AUUAAGCAAUAUUACGGCUC
30 °C
  self-splicing fitness (ln): -0.973 ± 0.16
37 °C
  self-splicing fitness (ln): 0.244 ± 0.17

## AUUAAGCAAUAUUACGGGUG
30 °C
  self-splicing fitness (ln): -1.87 ± 0.13
37 °C
  self-splicing fitness (ln): -1.69 ± 0.16

## AUUAAGCAAUAUUACGGUCA
30 °C
  self-splicing fitness (ln): -1.4 ± 0.14
37 °C
  self-splicing fitness (ln): -0.528 ± 0.14

## AUUAAGCAAUAUUACGGUUU
30 °C
  self-splicing fitness (ln): -0.783 ± 0.07
37 °C
  self-splicing fitness (ln): 0.254 ± 0.12

## AUUAAGCAAUAUUACGUCAU
30 °C
  self-splicing fitness (ln): -1.51 ± 0.1
37 °C
  self-splicing fitness (ln): -0.717 ± 0.12

## AUUCAGCAAUAUUACGAACC
30 °C
  self-splicing fitness (ln): -0.503 ± 0.16
37 °C
  self-splicing fitness (ln): -0.325 ± 0.2

## AUUCAGCAAUAUUACGAACU
30 °C
  self-splicing fitness (ln): 0.334 ± 0.13
37 °C
  self-splicing fitness (ln): 0.543 ± 0.14

## AUUCAGCAAUAUUACGACGG
30 °C
  self-splicing fitness (ln): -2.61 ± 0.19
37 °C
  self-splicing fitness (ln): -1.52 ± 0.17

## AUUCAGCAAUAUUACGACUA
30 °C
  self-splicing fitness (ln): -0.646 ± 0.12
37 °C
  self-splicing fitness (ln): -0.106 ± 0.12

## AUUCAGCAAUAUUACGAGCG
30 °C
  self-splicing fitness (ln): -1.08 ± 0.078
37 °C
  self-splicing fitness (ln): -0.441 ± 0.1

## AUUCAGCAAUAUUACGAUAA
30 °C
  self-splicing fitness (ln): -0.72 ± 0.086
37 °C
  self-splicing fitness (ln): -0.295 ± 0.099

## AUUCAGCAAUAUUACGAUAC
30 °C
  self-splicing fitness (ln): -1.17 ± 0.097
37 °C
  self-splicing fitness (ln): 0.368 ± 0.11
